Measured values reported in the supplement of paper PMC9112550, “Optimization of the antimicrobial peptide Bac7 by deep mutational scanning” (BMC Biology, 2022).

Tested on: Escherichia coli TOP10
Assay: shrunken log2 fold change of peptide-encoding DNA abundance (4.5 h post-induction vs induction); higher = less antimicrobial activity (less host growth inhibition)
Settings: time post-induction: 4.5 h; library: site-saturation at positions 5, 18, 19, 20
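Also: peptides expressed intracellularly from a pBAD plasmid library in pooled LB shake-flask culture, induced with 0.3% L-arabinose, DNA abundance read by NGS, three biological replicates, DESeq2 with apeglm shrinkage.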

Sequence: RRIRSRPPRLPRPRPRPQKIPRP
- shrunken log2 fold change: -0.53

Sequence: RRIRTRPPRLPRPRPRPSAIPRP
- shrunken log2 fold change: -0.979

Sequence: RRIRCRPPRLPRPRPRPQCDPRP
- shrunken log2 fold change: -0.264

Sequence: RRIRDRPPRLPRPRPRPCGGPRP
- shrunken log2 fold change: 0.132

Sequence: RRIRTRPPRLPRPRPRPWLWPRP
- shrunken log2 fold change: 0.202

Sequence: RRIRHRPPRLPRPRPRPWEAPRP
- shrunken log2 fold change: -0.0553

Sequence: RRIRMRPPRLPRPRPRPFVRPRP
- shrunken log2 fold change: -0.01

Sequence: RRIRSRPPRLPRPRPRPNFFPRP
- shrunken log2 fold change: 0.179

Sequence: RRIRHRPPRLPRPRPRPDNQPRP
- shrunken log2 fold change: -0.0673

Sequence: RRIRNRPPRLPRPRPRPVEPPRP
- shrunken log2 fold change: 0.173

Sequence: RRIRRRPPRLPRPRPRPDGHPRP
- shrunken log2 fold change: -0.0521

Sequence: RRIRCRPPRLPRPRPRPSTQPRP
- shrunken log2 fold change: -0.495

Sequence: RRIRWRPPRLPRPRPRPHHSPRP
- shrunken log2 fold change: -0.667

Sequence: RRIRRRPPRLPRPRPRPFMFPRP
- shrunken log2 fold change: 0.234

Sequence: RRIRQRPPRLPRPRPRPIDNPRP
- shrunken log2 fold change: -0.36

Sequence: RRIRPRPPRLPRPRPRPFITPRP
- shrunken log2 fold change: -0.678

Sequence: RRIRERPPRLPRPRPRPIWCPRP
- shrunken log2 fold change: 0.000213

Sequence: RRIRHRPPRLPRPRPRPWWQPRP
- shrunken log2 fold change: 0.00354

Sequence: RRIRFRPPRLPRPRPRPCPKPRP
- shrunken log2 fold change: 0.036

Sequence: RRIRARPPRLPRPRPRPRPMPRP
- shrunken log2 fold change: 0.771

Sequence: RRIRERPPRLPRPRPRPCNVPRP
- shrunken log2 fold change: -0.0745

Sequence: RRIRLRPPRLPRPRPRPPCAPRP
- shrunken log2 fold change: 0.457

Sequence: RRIRARPPRLPRPRPRPSEDPRP
- shrunken log2 fold change: 0.396

Sequence: RRIRVRPPRLPRPRPRPMIVPRP
- shrunken log2 fold change: 0.109

Sequence: RRIRLRPPRLPRPRPRPGWHPRP
- shrunken log2 fold change: 0.13

Sequence: RRIRMRPPRLPRPRPRPELAPRP
- shrunken log2 fold change: 3.6

Sequence: RRIRSRPPRLPRPRPRPVCWPRP
- shrunken log2 fold change: 0.714

Sequence: RRIRARPPRLPRPRPRPSKYPRP
- shrunken log2 fold change: -0.464

Sequence: RRIRNRPPRLPRPRPRPCYMPRP
- shrunken log2 fold change: 0.0787

Sequence: RRIRSRPPRLPRPRPRPVYVPRP
- shrunken log2 fold change: -0.525

Sequence: RRIRHRPPRLPRPRPRPFETPRP
- shrunken log2 fold change: 0.0877

Sequence: RRIRGRPPRLPRPRPRPIMEPRP
- shrunken log2 fold change: 0.229

Sequence: RRIRMRPPRLPRPRPRPAVAPRP
- shrunken log2 fold change: 1.04

Sequence: RRIRWRPPRLPRPRPRPNFPPRP
- shrunken log2 fold change: 0.0284

Sequence: RRIRSRPPRLPRPRPRPIAIPRP
- shrunken log2 fold change: -0.0732

Sequence: RRIRYRPPRLPRPRPRPGAHPRP
- shrunken log2 fold change: -0.818

Sequence: RRIRSRPPRLPRPRPRPTSIPRP
- shrunken log2 fold change: -0.102

Sequence: RRIRLRPPRLPRPRPRPQVPPRP
- shrunken log2 fold change: -0.0408

Sequence: RRIRFRPPRLPRPRPRPKPWPRP
- shrunken log2 fold change: 0.489

Sequence: RRIRNRPPRLPRPRPRPPNIPRP
- shrunken log2 fold change: -0.226

Sequence: RRIRPRPPRLPRPRPRPDNPPRP
- shrunken log2 fold change: -0.00669

Sequence: RRIRLRPPRLPRPRPRPSYCPRP
- shrunken log2 fold change: -0.413

Sequence: RRIRWRPPRLPRPRPRPAIRPRP
- shrunken log2 fold change: 0.639

Sequence: RRIRARPPRLPRPRPRPMFAPRP
- shrunken log2 fold change: 0.52

Sequence: RRIRNRPPRLPRPRPRPDTTPRP
- shrunken log2 fold change: -0.129

Sequence: RRIRNRPPRLPRPRPRPNLEPRP
- shrunken log2 fold change: 0.0441

Sequence: RRIRVRPPRLPRPRPRPTWNPRP
- shrunken log2 fold change: 0.13

Sequence: RRIRRRPPRLPRPRPRPKCFPRP
- shrunken log2 fold change: 0.445

Sequence: RRIRTRPPRLPRPRPRPQTWPRP
- shrunken log2 fold change: -0.18

Sequence: RRIRDRPPRLPRPRPRPYDFPRP
- shrunken log2 fold change: -0.178

Sequence: RRIRDRPPRLPRPRPRPHMKPRP
- shrunken log2 fold change: -0.467

Sequence: RRIRIRPPRLPRPRPRPYDAPRP
- shrunken log2 fold change: -1.48

Sequence: RRIRPRPPRLPRPRPRPFMGPRP
- shrunken log2 fold change: -0.448

Sequence: RRIRVRPPRLPRPRPRPFQVPRP
- shrunken log2 fold change: -0.0887

Sequence: RRIRHRPPRLPRPRPRPDRPPRP
- shrunken log2 fold change: -0.184

Sequence: RRIRARPPRLPRPRPRPNRDPRP
- shrunken log2 fold change: -0.183

Sequence: RRIRYRPPRLPRPRPRPKDMPRP
- shrunken log2 fold change: 0.0203

Sequence: RRIRSRPPRLPRPRPRPPADPRP
- shrunken log2 fold change: 0.981

Sequence: RRIRNRPPRLPRPRPRPQMAPRP
- shrunken log2 fold change: -0.23

Sequence: RRIRPRPPRLPRPRPRPHAVPRP
- shrunken log2 fold change: 0.0549

Sequence: RRIRSRPPRLPRPRPRPMPPPRP
- shrunken log2 fold change: 0.435

Sequence: RRIRTRPPRLPRPRPRPHCEPRP
- shrunken log2 fold change: 0.023

Sequence: RRIRKRPPRLPRPRPRPQIFPRP
- shrunken log2 fold change: -0.0259

Sequence: RRIRVRPPRLPRPRPRPYKGPRP
- shrunken log2 fold change: -0.294

Sequence: RRIRCRPPRLPRPRPRPGQDPRP
- shrunken log2 fold change: -0.0365

Sequence: RRIRMRPPRLPRPRPRPPDFPRP
- shrunken log2 fold change: 0.549

Sequence: RRIRDRPPRLPRPRPRPRIAPRP
- shrunken log2 fold change: 0.114

Sequence: RRIRVRPPRLPRPRPRPLWQPRP
- shrunken log2 fold change: 2.32

Sequence: RRIRERPPRLPRPRPRPNDAPRP
- shrunken log2 fold change: -0.19

Sequence: RRIRQRPPRLPRPRPRPGECPRP
- shrunken log2 fold change: -0.0823

Sequence: RRIRCRPPRLPRPRPRPNTGPRP
- shrunken log2 fold change: -0.657

Sequence: RRIRVRPPRLPRPRPRPDRNPRP
- shrunken log2 fold change: -0.162

Sequence: RRIRERPPRLPRPRPRPWHNPRP
- shrunken log2 fold change: -0.344

Sequence: RRIRQRPPRLPRPRPRPIGFPRP
- shrunken log2 fold change: -0.0702

Sequence: RRIRVRPPRLPRPRPRPSHPPRP
- shrunken log2 fold change: -0.852

Sequence: RRIRTRPPRLPRPRPRPFQWPRP
- shrunken log2 fold change: -0.0875

Sequence: RRIRARPPRLPRPRPRPAMEPRP
- shrunken log2 fold change: 0.372

Sequence: RRIRHRPPRLPRPRPRPQLRPRP
- shrunken log2 fold change: -0.343

Sequence: RRIRIRPPRLPRPRPRPFWHPRP
- shrunken log2 fold change: -0.275

Sequence: RRIRQRPPRLPRPRPRPQSHPRP
- shrunken log2 fold change: -0.309

Sequence: RRIRFRPPRLPRPRPRPNINPRP
- shrunken log2 fold change: -0.536

Sequence: RRIRDRPPRLPRPRPRPTQVPRP
- shrunken log2 fold change: 0.0721

Sequence: RRIRERPPRLPRPRPRPPHRPRP
- shrunken log2 fold change: 0.0387

Sequence: RRIRDRPPRLPRPRPRPKTFPRP
- shrunken log2 fold change: 0.00972

Sequence: RRIRPRPPRLPRPRPRPGWVPRP
- shrunken log2 fold change: 0.405

Sequence: RRIRVRPPRLPRPRPRPMTRPRP
- shrunken log2 fold change: -0.123

Sequence: RRIRNRPPRLPRPRPRPQADPRP
- shrunken log2 fold change: -0.0176

Sequence: RRIRIRPPRLPRPRPRPIEQPRP
- shrunken log2 fold change: -0.489

Sequence: RRIRMRPPRLPRPRPRPMCVPRP
- shrunken log2 fold change: 1.45

Sequence: RRIRIRPPRLPRPRPRPPCKPRP
- shrunken log2 fold change: -0.422

Sequence: RRIRFRPPRLPRPRPRPVFTPRP
- shrunken log2 fold change: -0.0271

Sequence: RRIRQRPPRLPRPRPRPNNHPRP
- shrunken log2 fold change: -0.71

Sequence: RRIRDRPPRLPRPRPRPQGLPRP
- shrunken log2 fold change: 0.0467

Sequence: RRIRKRPPRLPRPRPRPAKWPRP
- shrunken log2 fold change: 0.26

Sequence: RRIRARPPRLPRPRPRPPTNPRP
- shrunken log2 fold change: 0.678

Sequence: RRIRPRPPRLPRPRPRPNEDPRP
- shrunken log2 fold change: -0.509

Sequence: RRIRQRPPRLPRPRPRPVWSPRP
- shrunken log2 fold change: -0.176

Sequence: RRIRTRPPRLPRPRPRPWLSPRP
- shrunken log2 fold change: -0.272

Sequence: RRIRCRPPRLPRPRPRPMMDPRP
- shrunken log2 fold change: -0.117

Sequence: RRIRSRPPRLPRPRPRPGQCPRP
- shrunken log2 fold change: 0.0202

Sequence: RRIRWRPPRLPRPRPRPEIWPRP
- shrunken log2 fold change: 1

Sequence: RRIRYRPPRLPRPRPRPIYSPRP
- shrunken log2 fold change: -0.143

Sequence: RRIRYRPPRLPRPRPRPSPRPRP
- shrunken log2 fold change: 0.062

Sequence: RRIRGRPPRLPRPRPRPQYFPRP
- shrunken log2 fold change: -0.141

Sequence: RRIRHRPPRLPRPRPRPDCWPRP
- shrunken log2 fold change: 0.0871

Sequence: RRIRDRPPRLPRPRPRPKIVPRP
- shrunken log2 fold change: -0.198

Sequence: RRIRARPPRLPRPRPRPAHIPRP
- shrunken log2 fold change: 0.241

Sequence: RRIRERPPRLPRPRPRPWRFPRP
- shrunken log2 fold change: -0.117

Sequence: RRIRARPPRLPRPRPRPYFPPRP
- shrunken log2 fold change: -0.418
